Source: patent publication US20100278829A1, “DUAL INHIBITION OF IMMUNOPHILIN/CYCLOPHILIN FAMILY MEMBERS AND EMMPRIN IMMUNOGLOBULIN RECEPTOR SUPERFAMILY MEMBERS” (priority 2009, published 2010)

Biological target: T1, CypA (Homo sapiens, UniProt P62937)
T1 construct: CypA was purified as previously described; made in house; host or cells: E. coli BL21 (DE3)
Assay: NMR titration of 15N-CypA, binding isotherms
Conditions: chemical shift changes, 25° C.
Method: NMR sample preparation, spectroscopy, and data analysis. All NMR spectra were collected at 25° C. on a Varian 600-, 720- , 800-, or 900-MHz spectrometer in 50 mM NaPO4, pH 6.5, 150 mM NaCl, and 50 mM imidazole supplemented with 7% D2O. There were only modest changes to the resonance positions with imidazole present (data not shown), yet imidazole did increase the lifetime of each sample slightly and, thus, was maintained in all samples. Samples utilized for assignment purposes contained 0.5-1 mM protein, while all samples utilized for titration purposes contained 0.5 mM protein with the indicated final concentration of the titrant. All spectra were processed using NMRPipe software65 and analyzed using CCPNmr software.66 Unless otherwise noted, all pulse sequences were obtained from standard Varian Biopack libraries. Transverse relaxation optimized spectroscopy (i.e., TROSY-based) HSQC experiments were used only when noted.
NMR titration experiments were first conducted using 15N-CypA with unlabeled CD147, and chemical shift changes were only observed for extracellular recombinant CD147 constructs that included the membrane-proximal region of CD147 residues 206-214. […] However, both extracellular cyclophilin ligands of CD147, CypA and CypB, are known to readily traverse the membrane. […]

T1 sequence (P62937 whole entry): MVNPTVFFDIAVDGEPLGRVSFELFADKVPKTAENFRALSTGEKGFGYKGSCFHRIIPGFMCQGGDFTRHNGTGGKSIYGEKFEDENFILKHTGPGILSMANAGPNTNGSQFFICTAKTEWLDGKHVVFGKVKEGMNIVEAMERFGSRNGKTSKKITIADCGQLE

B1: CD147: extracellular recombinant CD147 constructs that include membrane-proximal residues 206-214 (protein, UniProt P35613 138-323, looked up)
extracellular domain: EPGTVFTTVEDLGSKILLTCSLNDSATEVTGHRWLKGGVVLKEDALPGQKTEFKVDSDDQWGEYSCVFLPEPMGTANIQLHGPPRVKAVKSSEHINEGETAMLVCKSESVPPVTDWAWYKITDSEDKALMNGSESRFFVSSSQGRSELHIENLNMEADPGQYRCNGTSSKGSDQAIITLRVRSHLA
modifications: extracellular domain
  Kd: > 1000 µM
